Measured values as given in US20180072816A1 (ADALTA, published 2018).
“And” between values parts separate entries of the source, which are not always exact repeats. Identical values can stand only once.

Legend:
human CXCR4 [1] = molecular target: T1, human CXCR4 (human, UniProt P61073 1-352); assay: phage display selection on hCXCR4 lipoparticles or CXCR4 positive cells
T1 construct: also called hCXCR4; Fusin

human CXCR4 [2] = molecular target: T1, human CXCR4; assay: flow cytometry on Ramos cells, anti-His-PE; i-body alone or with an excess of SDF-1, MAb 12G5 or AMD3100 [top panel]
human CXCR4 [3] = molecular target: T1, human CXCR4; assay: flow cytometry on Ramos cells, anti-His-PE; i-body alone or with an excess of SDF-1, MAb 12G5 or AMD3100 [middle panel]
human CXCR4 [4] = molecular target: T1, human CXCR4; assay: SPR (Biacore), CXCR4 expressed on lipoparticles
human CXCR4 [5] = molecular target: T1, human CXCR4; assay: cell-based or functional assay
human CXCR4 [6] = molecular target: T1, human CXCR4; assay: cell-based or functional assay; remark: listed apart in the source
human CXCR4 [7] = molecular target: T1, human CXCR4; assay: SPR (Biacore), immobilised CXCR4 lipoparticles
human CXCR4 [8] = molecular target: T1, human CXCR4; assay: SPR
human CXCR4 [9] = molecular target: T1, human CXCR4; assay: SPR (Biacore), immobilised CXCR4 lipoparticles; remark: listed apart in the source
human CXCR4 [10] = molecular target: T1, human CXCR4; assay: not told (affinity for CXCR4); parent i-body before affinity maturation
CCR5 (on lipoparticles) = molecular target: T2, CCR5 (on lipoparticles) (UniProt P51681 1-352, limits assumed); assay: ELISA, single point, periplasmic fraction on CCR5 positive lipoparticles, 450 nm absorbance
T2 construct: whole, on cells; Whole receptor in lipoparticles; also called CCR5 positive lipoparticles; GPCR CCR5
T2 sequence (P51681 whole entry): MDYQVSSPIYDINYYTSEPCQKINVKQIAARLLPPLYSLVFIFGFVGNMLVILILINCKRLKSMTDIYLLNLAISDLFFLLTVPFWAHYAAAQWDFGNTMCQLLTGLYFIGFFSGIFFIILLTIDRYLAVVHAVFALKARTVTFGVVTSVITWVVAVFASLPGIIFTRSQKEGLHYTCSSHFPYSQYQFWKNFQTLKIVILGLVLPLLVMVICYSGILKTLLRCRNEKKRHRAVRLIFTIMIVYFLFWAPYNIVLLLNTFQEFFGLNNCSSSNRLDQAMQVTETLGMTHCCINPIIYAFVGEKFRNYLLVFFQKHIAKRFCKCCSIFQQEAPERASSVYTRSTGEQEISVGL

human CXCR4 [11] = molecular target: T1, human CXCR4; assay: off-rate, CXCR4 expressed on lipoparticles
human CXCR4 [12] = molecular target: T1, human CXCR4; assay: SPR (Biacore), biotinylated CXCR4 lipoparticles captured on streptavidin (bt. CXCR4), i-body injected
human CXCR4 [13] = molecular target: T1, human CXCR4; assay: as above; remark: listed apart in the source
human CXCR4 [14] = molecular target: T1, human CXCR4; assay: as above; remark: listed apart in the source
human CXCR4 [15] = molecular target: T1, human CXCR4; assay: SPR (Biacore), biotinylated CXCR4 lipoparticles (bt.CXCR4), three successive injections in one cycle
human CXCR4 [16] = molecular target: T1, human CXCR4; assay: SPR (Biacore)
human serum albumin [17] = molecular target: T3, human serum albumin (human, UniProt P02768 25-609); assay: SPR
T3 construct: also called HSA; HAS

human serum albumin [18] = molecular target: T3, human serum albumin; assay: SPR (Biacore), binding to HSA by the SA21 peptide
human CXCR4 [19] = molecular target: T1, human CXCR4; assay: not told
human CXCR4 [20] = molecular target: T1, human CXCR4; assay: cell-based or functional assay; remark: listed apart in the source

T1 sequence (P61073 whole entry): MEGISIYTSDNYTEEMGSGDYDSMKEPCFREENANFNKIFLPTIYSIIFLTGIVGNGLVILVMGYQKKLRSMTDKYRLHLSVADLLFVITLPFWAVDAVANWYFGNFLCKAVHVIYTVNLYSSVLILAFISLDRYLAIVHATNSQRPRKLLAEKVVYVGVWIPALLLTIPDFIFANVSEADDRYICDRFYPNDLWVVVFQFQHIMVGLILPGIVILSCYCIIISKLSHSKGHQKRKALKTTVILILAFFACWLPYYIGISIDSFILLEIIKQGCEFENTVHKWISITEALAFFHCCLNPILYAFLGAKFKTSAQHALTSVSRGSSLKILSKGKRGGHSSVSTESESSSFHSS

B1: ADCX-54 (designed binder)
chain: LQVDIVPSQGEISVGESKFFLCQVAGRTIIVEISWFSPNGEKLTPNQQRISVVWNDDSSSTLTIYNANIDDAGIYKCVVVLSIRGKWELEATVNVKIFQ
notes: i-body (human NCAM1 domain 1 scaffold)
binding result (human CXCR4 [1]): binds

B2: AM3-114-6H (designed binder)
chain: EAEALQVDIVPYQGEISVGESKFFLCQVAGSLSGIRISWFSPNGEKLTPNQQRISVVWNDDSSSTLTIYNANIDDAGIYKCVVWRTGGYRHRYLVLGEATVNVKIFQ
notes: Construct with N-terminal EAEA and 6H tag, detected with anti-His-PE; not shown: 6H tag (six histidines by the label)
binding result (human CXCR4 [2]): binds

B3: AM4-272-6H (designed binder)
chain: EAEALQVDIVPSQGEISVGESKFFLCQVAGSYSDYRISWFSPNGEKLTPNQQRISVVWNDDSSSTLTIYNANIDDAGIYKCVVYRIGGYRHRYLVLGEATVNVKIFQ
notes: as for B2
binding result (human CXCR4 [3]): binds

B4: AM3-920 (designed binder)
chain: LQVDIVPSQGEISVGESKFFLCQVAGSGSGIRISWFSPNGEKLTPNQQRISVVWNDDSSSTLTIYNANIDDAGIYKCVVWRTGGYRHRYLVLGEATVNVKIFQ
Kd (human CXCR4 [4]): 7.18 nM and 5.87 nM
kon (human CXCR4 [4]): 1.12e+06 M⁻¹ s⁻¹ and 1.26e+06 M⁻¹ s⁻¹

B5: AM4-613 (designed binder)
chain: LQVDIVPSQGEISVGESKFFLCQVAGSKSDVRISWFSPNGEKLTPNQQRISVVWNDDSSSTLTIYNANIDDAGIYKCVVWRTGGYRHRYLVLGEATVNVKIFQ
IC50 (nM) in β-Arrestin BRET assay (Antagonist mode in the presence of 100 nM SDF-1) (human CXCR4 [5]): 1830 nM
Kd (human CXCR4 [4]): 7.83 nM
kon (human CXCR4 [4]): 1.33e+06 M⁻¹ s⁻¹

B6: AM4-746 (designed binder)
chain: LQVDIVPSQGEISVGESKFFLCQVAGSKSNIRISWFSPNGEKLTPNQQRISVVWNDDSSSTLTIYNANIDDAGIYKCVVYRTGGYRHRYLKLGEATVNVKIFQ
IC50 (nM) in β-Arrestin BRET assay (Antagonist mode in the presence of 100 nM SDF-1) (human CXCR4 [5]): 741 nM
cAMP inhibition IC50 (human CXCR4 [6]): 115 nM
Kd (human CXCR4 [4]): 5.36 nM
kon (human CXCR4 [4]): 2.5e+06 M⁻¹ s⁻¹

B7: AM4-661 (designed binder)
chain: LQVDIVPSQGEISVGESKFFLCQVAGSKSDFRISWFSPNGEKLTPNQQRISVVWNDDSSSTLTIYNANIDDAGIYKCVVYRTGGYRHRYLVLGEATVNVKIFQ
IC50 (nM) in β-Arrestin BRET assay (Antagonist mode in the presence of 100 nM SDF-1) (human CXCR4 [5]): 1540 nM
Kd (human CXCR4 [4]): 9.53 nM and 9.66 nM
kon (human CXCR4 [4]): 966000 M⁻¹ s⁻¹ and 983000 M⁻¹ s⁻¹

B8: AM5-245 (designed binder)
chain: LQVDIVPSQGEISVGESKFFLCQAAGSGSHIRISWFSPNGEKLTPNQQRISVVWNDDSSSTLTIYNANIDDAGIYKCVVWRTGGYRHRALVLGEATVNVKIFQ
Kd (human CXCR4 [4]): 14.9 nM and 15.9 nM
kon (human CXCR4 [4]): 813000 M⁻¹ s⁻¹ and 771000 M⁻¹ s⁻¹

B9: ADCX-99 (designed binder)
chain: LQVDIVPSQGEISVGESKFFLCQVAGSGSDIRISWFSPNGEKLTPNQQRISVVWNDDSSSTLTIYNANIDDAGIYKCVVYRTGGYRHRALVLGEATVNVKIFQ
notes: i-body (human NCAM1 domain 1 scaffold); also called wild-type i-body ADCX-99
Kd (human CXCR4 [7]): ~600 nM and 623 nM
Kd (human CXCR4 [8]): 643 nM
Kd (human CXCR4 [9]): 700 nM
Kd (human CXCR4 [10]): > 700 nM
binding result (CCR5 (on lipoparticles)): no binding

B10: AM3-466 (designed binder)
chain: LQVDIVPSQGEISVGESKFFLCQVAGSGSHQRISWFSPNGEKLTPNQQRISVVWNDDSSSTLTIYNANIDDAGIYKCVVWRTGAYRHRALVLGEATVNVKIFQ
IC50 (nM) in β-Arrestin BRET assay (Antagonist mode in the presence of 100 nM SDF-1) (human CXCR4 [5]): 6320 nM
Kd (human CXCR4 [4]): 13.8 nM and 15.7 nM
kon (human CXCR4 [4]): 465000 M⁻¹ s⁻¹ and 426000 M⁻¹ s⁻¹

B11: AM3-523 (designed binder)
chain: LQVDIVPSQGEISVGESKFFLCQVAGSGSHMRISWFSPNGEKLTPNQQRISVVWNDDSSSTLTIYNANIDDAGIYKCVVWRVGGYRHRALVLGEATVNVKIFQ
IC50 (nM) in β-Arrestin BRET assay (Antagonist mode in the presence of 100 nM SDF-1) (human CXCR4 [5]): 12700 nM
cAMP inhibition IC50 (human CXCR4 [6]): 225 nM
Kd (human CXCR4 [4]): 8.53 nM and 9.47 nM
kon (human CXCR4 [4]): 1e+06 M⁻¹ s⁻¹ and 965000 M⁻¹ s⁻¹

B12: AM4-1121 (designed binder)
chain: LQVDIVPSQGEISVGESKFFLCQVAGSKSGIRISWFSPNGEKLTPNQQRISVVWNDDSSSTLTIYNANIDDAGIYKCVVYRTGGYRHRYLRLGEATVNVKIFQ
IC50 (nM) in β-Arrestin BRET assay (Antagonist mode in the presence of 100 nM SDF-1) (human CXCR4 [5]): 796 nM
cAMP inhibition IC50 (human CXCR4 [6]): 125 nM
Kd (human CXCR4 [4]): 7.21 nM and 6.7 nM
kon (human CXCR4 [4]): 1.29e+06 M⁻¹ s⁻¹ and 1.42e+06 M⁻¹ s⁻¹
koff (human CXCR4 [11]): 0.0115 s⁻¹

B13: ADCX-272 (designed binder)
chain: LQVDIVPSQGEISVGESKFFLCQVAGHLEVRSISWFSPNGEKLTPNQQRISVVWNDDSSSTLTIYNANIDDAGIYKCVVEQRGRSQSYFSEATVNVKIFQ
notes: as for B1
Kd (human CXCR4 [12]): 1620 nM
Kd (human CXCR4 [9]): 1600 nM
binding result (CCR5 (on lipoparticles)): no binding

B14: ADCX-668 (designed binder)
chain: LQVDIVPSQGEISVGESKFFLCQVAGTIWYEQISWFTPNGEKLTPNQQRISVVWNDDSSSTLTIYNANIDDAGIYKCVVWTRPVTSSMHEATVNVKIFQ
notes: as for B1
Kd (human CXCR4 [9]): 42000 nM
Kd (human CXCR4 [13]): 42300 nM

B15: ADCX-306 (designed binder)
chain: LQVDIVPSQGEISVGESKFFLCQVAGFQEWVNWFSPNGEKLTPNQQRISVVWNDDSSSTLTIYNANIDDAGIYKCVVTMPHTLNNLDVRTEATVNVKIFQ
notes: as for B1
Kd (human CXCR4 [7]): 22500 nM
Kd (human CXCR4 [14]): 22500 nM
Kd (human CXCR4 [9]): 22000 nM

B16: ADCX-6 (designed binder)
chain: LQVDIVPSQGEISVGESKFFLCQVAGLTSLEGISWFSPNGEKLTPNQQRISVVWNDDSSSTLTIYNANIDDAGIYKCVVEDHPQYSKMEEATVNVKIFQ
notes: i-body (human NCAM1 domain 1 scaffold); also called ACDX-6
binding result (human CXCR4 [1]): binds

B17: AM3-114-Im7-FH-SA21 dual specificity i-body (designed binder)
chain: MALQVDIVPSQGEISVGESKFFLCQVAGSLSGIRISWFSPNGEKLTPNQQRISVVWNDDSSSTLTIYNANIDDAGIYKCVVWRTGGYRHRYLVLGEATVNVKIFQGGGGSELKNSISDYTEAEFVQLLKEIEKENVAATDDVLDVLLEHFVKITEHPDGTDLIYYPSDNRDDSPEGIVKEIKEWRAANGKPGFKQGGGGGSDYKDDDDKGSGHHHHHHHHGGGGSRLIEDICLPRWGCLWEDD
Kd (human CXCR4 [15]): 9.2 nM
koff (human CXCR4 [15]): 0.002 s⁻¹
kon (human CXCR4 [15]): 210000 M⁻¹ s⁻¹
Kd (human CXCR4 [16]): 9 nM
Kd (human CXCR4 [8]): 5 to 10 nM
Kd (human serum albumin [17]): ~500 nM
Kd (human serum albumin [18]): 518 nM

B18: 21H5 control i-body (designed binder)
chain: LQVDIVPSQGEISVGESKFFLCQVAGDAKDKDISWFSPNGEKLTPNQQRISVVWNDDSSSTLTIYNANIDDAGIYKCVVTGSDAMSNYSYPISESEATVNVKIFQ
notes: Control i-body used as isotype control; also called negative control i-body; isotype control i-body
cAMP inhibition IC50 (human CXCR4 [6]): > 10000 nM
binding result (human CXCR4 [19]): no binding
Calcium Inhibition EC50 (human CXCR4 [20]): > 10000 nM
